Legend:
[1] = Labelling of the kidney in the same rats (fluorescence microscopy of kidney sections); assay type: in vivo; details: 200 μg into the jugular vein, 60 minutes, labelling linked to partial elimination of the products
Experimental: Briefly, four rats (300 g each) were anaesthetized, intubated and ventilated. Myocardial ischaemia was triggered by a transient occlusion of the coronary artery. After 30 minutes of occlusion, the coronary artery was reperfused for one hour.
At the end of the reperfusion period, the AFIM-fluorescein peptides of Example 6 were injected into the jugular vein in an amount of 200 μg of peptide for each of two of the rats in a total volume of 1 ml.
By way of comparison, 200 μg of annexin 5-fluorescein (compounds of the prior art) were injected under the same conditions for each of the other two rats in a total volume of 1 ml.
The rats were sacrificed after 60 minutes.
Five organs were stored for this study: the heart, the lung, the kidney, the liver and the brain. They were washed and rinsed in the presence of formalin. […]
A few sections were stained with haematoxylin. The sections were examined under a fluorescence microscope and the adjacent sections stained with haematoxylin were examined with a visible light microscope. The sections stained with haematoxylin (labelled H1 and H2 respectively in the appended FIGS. 1 and 2) allow visualisation of the architecture of the tissues and fluorescence microscopy to detect the labelling with AFIM-fluorescein (AFIM-F) or with annexin 5-fluorescein (A5-F).

[2] = prior art observation; cited from earlier work

annexin 5: prior art annexin protein that binds anionic phospholipids in a calcium-dependent manner
Labelling of the entire renal tissue [1]: strongly labelled | Toxicity [2]: renal toxicity

Reference: patent US20060233706A1, “Marked peptides having affinity for a phospholipid and uses” (COMMISSARIAT A L'ENERGIE, priority 2002, published 2006)
